Biological target: Methanocaldococcus jannaschii SufB* (N-terminal His6 tagged) (Methanocaldococcus jannaschii)
Test: pull-down

Methanocaldococcus jannaschii SufC (untagged) (natural protein)
stoichiometry N: 1

From doi:10.1101/2024.03.20.586028
